Reference: the RNAGym collection of RNA variant scans (doi:10.1093/molbev/msab373)

B1: Azoarcus group I ribozyme (parent)
chain: GUGCCUUGCGCCGGGAAACCACGCAAGGGAUGGUGUCAAAUUCGGCGAAACCUAAGCGCCCGCCCGGGCGUAUGGCAACGCCGAGCCAAGCUUCGGCGCCUGCGCCGAUGAAGGUGUAGAGACUAGACGGCACCCACCUAAGGCAAACGCUAUGGUGAAGGCAUAGUCCAGGGAGUGGCGAAAGUCACACAAACCGG

Variants of: B1
Assay: reverse-splicing fitness (ratio to wild type); higher = more active; in vitro selection; Mg2+ level not given
In short: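 An in vitro group I ribozyme library with randomized positions was T7-transcribed and gel-purified. In triplicate, 10 pmol RNA in EPPS pH 7.5 was reacted with 50 pmoles of a 30-nt RNA substrate for 1 h at 37 °C across several added MgCl2 levels (1–48 mM), then stopped with EDTA. Products were reverse transcribed from a substrate-complementary primer, PCR-amplified and sequenced (HiSeq 4000). Fitness is a variant's read proportion after selection over that before, normalised to wild type.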

Question: With C82U A111G A120C A145U C150G C169U U176C as the variant, how does the reverse-splicing fitness read?
Answer: 0.0124

Question: With C82U A111G A120C A145U C150G C169U U176G as the variant, how does the reverse-splicing fitness read?
Answer: 0.00471

Question: With C82U A111G A120C A145U C150G C169U U176A as the variant, how does the reverse-splicing fitness read?
Answer: 0.00625

Question: For C82U A111G A120C A145G C150A, which reverse-splicing fitness is on record?
Answer: 0.0129

Question: Which reverse-splicing fitness does the source give for C82U A111G A120C A145G C150U here?
Answer: 0.042

Question: For C82U A111G A120C A145G C150G, which reverse-splicing fitness is on record?
Answer: 0.00985

Question: With C82U A111C A145U C150G U176A as the variant, how does the reverse-splicing fitness read?
Answer: 0.0108

Question: For C82U A111C A145U C150G U176G, which reverse-splicing fitness is on record?
Answer: 0.00446

Question: Which reverse-splicing fitness does the source give for C82U A111C A145U C150G U176C here?
Answer: 0.0156

Question: With C82U A111G A120C A145G C150U C169A as the variant, how does the reverse-splicing fitness read?
Answer: 0.00939

Question: For C82U A111G A120C A145G C150U C169U, which reverse-splicing fitness is on record?
Answer: 0.0127

Question: For C82U A111G A120C A145G C150U C169G, which reverse-splicing fitness is on record?
Answer: 0.0102

Question: Which reverse-splicing fitness does the source give for C82U A111G A120C A145G C150A C169A U176G here?
Answer: 0.00589

Question: For C82U A111G A120C A145G C150A C169A U176C, which reverse-splicing fitness is on record?
Answer: 0.018

Question: For C82U A111G A120C A145G C150A C169A U176A, which reverse-splicing fitness is on record?
Answer: 0.0157

Question: For C82U A111G A120C A145U C150U U176A, which reverse-splicing fitness is on record?
Answer: 0.0147

Question: With C82U A111G A120C A145U C150U U176C as the variant, how does the reverse-splicing fitness read?
Answer: 0.0223

Question: Which reverse-splicing fitness does the source give for C82U A111G A120C A145U C150U U176G here?
Answer: 0.00565

Question: For C82U A111C A145U C169G U176C, which reverse-splicing fitness is on record?
Answer: 0.0162

Question: With C82U A111C A145U C169G U176A as the variant, how does the reverse-splicing fitness read?
Answer: 0.0145

Question: For C82U A111C A145U C169G U176G, which reverse-splicing fitness is on record?
Answer: 0.00667

Question: For C82U A111C C150G, which reverse-splicing fitness is on record?
Answer: 0.0163

Question: Which reverse-splicing fitness does the source give for C82U A111C C150U here?
Answer: 0.123

Question: For C82U A111C C150A, which reverse-splicing fitness is on record?
Answer: 0.0255

Question: Which reverse-splicing fitness does the source give for C82U A111G A120C A145G C150G C169U U176C here?
Answer: 0.0109

Question: Which reverse-splicing fitness does the source give for C82U A111G A120C A145G C150G C169U U176A here?
Answer: 0.00704

Question: Which reverse-splicing fitness does the source give for C82U A111G A120C A145G C150G C169U U176G here?
Answer: 0.0053

Question: Which reverse-splicing fitness does the source give for C82U A111G A120C C150A C169G U176C here?
Answer: 0.0191

Question: For C82U A111G A120C C150A C169G U176A, which reverse-splicing fitness is on record?
Answer: 0.0237

Question: For C82U A111G A120C C150A C169G U176G, which reverse-splicing fitness is on record?
Answer: 0.00458

Question: For C82U A111G A120C A145U C150A C169A U176C, which reverse-splicing fitness is on record?
Answer: 0.00758

Question: With C82U A111G A120C A145U C150A C169A U176G as the variant, how does the reverse-splicing fitness read?
Answer: 0.00469

Question: Which reverse-splicing fitness does the source give for C82U A111G A120C A145U C150A C169A U176A here?
Answer: 0.0128

Question: Which reverse-splicing fitness does the source give for C82U A111G A120C C150G U176A here?
Answer: 0.00392

Question: For C82U A111G A120C C150G U176C, which reverse-splicing fitness is on record?
Answer: 0.00984

Question: Which reverse-splicing fitness does the source give for C82U A111G A120C C150G U176G here?
Answer: 0.00249

Question: For C82U A111G A120C C150A C169U U176A, which reverse-splicing fitness is on record?
Answer: 0.017

Question: Which reverse-splicing fitness does the source give for C82U A111G A120C C150A C169U U176G here?
Answer: 0.00561

Question: For C82U A111G A120C C150A C169U U176C, which reverse-splicing fitness is on record?
Answer: 0.0177

Question: Which reverse-splicing fitness does the source give for C82U A111G A120C A145U C169G here?
Answer: 0.00646

Question: For C82U A111G A120C A145U C169U, which reverse-splicing fitness is on record?
Answer: 0.0104

Question: For C82U A111G A120C A145U C169A, which reverse-splicing fitness is on record?
Answer: 0.00556

Question: With C82U A111G A120C A145U C150G U176A as the variant, how does the reverse-splicing fitness read?
Answer: 0.00455

Question: With C82U A111G A120C A145U C150G U176G as the variant, how does the reverse-splicing fitness read?
Answer: 0.00286

Question: With C82U A111G A120C A145U C150G U176C as the variant, how does the reverse-splicing fitness read?
Answer: 0.00882

Question: For C82U A111C C150U C169U, which reverse-splicing fitness is on record?
Answer: 0.0116

Question: Which reverse-splicing fitness does the source give for C82U A111C C150U C169A here?
Answer: 0.00914

Question: With C82U A111C C150U C169G as the variant, how does the reverse-splicing fitness read?
Answer: 0.00731

Question: For C82U A111G A120C A145U C169A U176G, which reverse-splicing fitness is on record?
Answer: 0.00329

Question: With C82U A111G A120C A145U C169A U176A as the variant, how does the reverse-splicing fitness read?
Answer: 0.00844

Question: With C82U A111G A120C A145U C169A U176C as the variant, how does the reverse-splicing fitness read?
Answer: 0.00627

Question: With C82U A111C C150A U176C as the variant, how does the reverse-splicing fitness read?
Answer: 0.0276

Question: With C82U A111C C150A U176A as the variant, how does the reverse-splicing fitness read?
Answer: 0.0143

Question: Which reverse-splicing fitness does the source give for C82U A111C C150A U176G here?
Answer: 0.00812

Question: Which reverse-splicing fitness does the source give for C82U A111G A120C C150G C169G U176G here?
Answer: 0.00467

Question: With C82U A111G A120C C150G C169G U176A as the variant, how does the reverse-splicing fitness read?
Answer: 0.00718

Question: For C82U A111G A120C C150G C169G U176C, which reverse-splicing fitness is on record?
Answer: 0.00429

Question: With C82U A111G A120C A145U C150A C169U U176C as the variant, how does the reverse-splicing fitness read?
Answer: 0.0132

Question: For C82U A111G A120C A145U C150A C169U U176A, which reverse-splicing fitness is on record?
Answer: 0.0139

Question: Which reverse-splicing fitness does the source give for C82U A111G A120C A145U C150A C169U U176G here?
Answer: 0.00404

Question: For C82U A111G A120C A145U U176G, which reverse-splicing fitness is on record?
Answer: 0.00658

Question: For C82U A111G A120C A145U U176C, which reverse-splicing fitness is on record?
Answer: 0.0251

Question: With C82U A111G A120C A145U U176A as the variant, how does the reverse-splicing fitness read?
Answer: 0.017

Question: For C82U A111C C150A C169A U176G, which reverse-splicing fitness is on record?
Answer: 0.00821

Question: Which reverse-splicing fitness does the source give for C82U A111C C150A C169A U176C here?
Answer: 0.0175

Question: Which reverse-splicing fitness does the source give for C82U A111C C150A C169A U176A here?
Answer: 0.0162

Question: Which reverse-splicing fitness does the source give for C82U A111G A120C A145C C169U U176A here?
Answer: 0.0142

Question: With C82U A111G A120C A145C C169U U176G as the variant, how does the reverse-splicing fitness read?
Answer: 0.0032

Question: Which reverse-splicing fitness does the source give for C82U A111G A120C A145C C169U U176C here?
Answer: 0.0107

Question: For C82U A111G A120C A145U C150U C169U U176G, which reverse-splicing fitness is on record?
Answer: 0.00402

Question: With C82U A111G A120C A145U C150U C169U U176A as the variant, how does the reverse-splicing fitness read?
Answer: 0.0157

Question: With C82U A111G A120C A145U C150U C169U U176C as the variant, how does the reverse-splicing fitness read?
Answer: 0.0124

Question: Which reverse-splicing fitness does the source give for C82U A111C A145U C150G C169U U176C here?
Answer: 0.0119

Question: For C82U A111C A145U C150G C169U U176A, which reverse-splicing fitness is on record?
Answer: 0.00807

Question: For C82U A111C A145U C150G C169U U176G, which reverse-splicing fitness is on record?
Answer: 0.00671

Question: Which reverse-splicing fitness does the source give for C82U A111G A120C A145C U176A here?
Answer: 0.0156

Question: With C82U A111G A120C A145C U176G as the variant, how does the reverse-splicing fitness read?
Answer: 0.00487

Question: With C82U A111G A120C A145C U176C as the variant, how does the reverse-splicing fitness read?
Answer: 0.0213

Question: For C82U A111G A120C A145G C150U C169A U176A, which reverse-splicing fitness is on record?
Answer: 0.0135

Question: With C82U A111G A120C A145G C150U C169A U176G as the variant, how does the reverse-splicing fitness read?
Answer: 0.00429

Question: With C82U A111G A120C A145G C150U C169A U176C as the variant, how does the reverse-splicing fitness read?
Answer: 0.0152

Question: With C82U A111C A145U C169G as the variant, how does the reverse-splicing fitness read?
Answer: 0.0103

Question: With C82U A111C A145U C169U as the variant, how does the reverse-splicing fitness read?
Answer: 0.0114
